Laboratory results: patent US8268575B2, “NAD biosynthesis systems” (Washington University, priority 2004, dated 2012)

Substrate: NC(=O)c1cccnc1
Experiment: purified protein, by the assay type
Settings: other: substrate of Nampt, 37° C., pH 7.5

B1: purified recombinant mouse Nampt (Mus musculus) (protein)
chain: MNAAAEAEFNILLATDSYKVTHYKQYPPNTSKVYSYFECREKKTENSKVRKVKYEETVFYGLQYILNKYLKGKVVTKEKIQEAKEVYREHFQDDVFNERGWNYILEKYDGHLPIEVKAVPEGSVIPRGNVLFTVENTDPECYWLTNWIETILVQSWYPITVATNSREQKKILAKYLLETSGNLDGLEYKLHDFGYRGVSSQETAGIGASAHLVNFKGTDTVAGIALIKKYYGTKDPVPGYSVPAAEHSTITAWGKDHEKDAFEHIVTQFSSVPVSVVSDSYDIYNACEKIWGEDLRHLIVSRSTEAPLIIRPDSGNPLDTVLKVLDILGKKFPVTENSKGYKLLPPYLRVIQGDGVDINTLQEIVEGMKQKKWSIENVSFGSGGALLQKLTRDLLNCSFKCSYVVTNGLGVNVFKDPVADPNKRSKKGRLSLHRTPAGNFVTLEEGKGDLEEYGHDLLHTVFKNGKVTKSYSFDEVRKNAQLNIEQDVAPH
  Km: 0.92 µM
